According to patent publication US20030087827A1 (BOARD OF SUPERVISORS OF LOUISIANA STATE UNIVERSITY AND …, published 2003):
Non-standard residues stand in square brackets, D forms with d. No end group written: not given here.

T1: proprotein convertase PC2
T1 sequence (P16519 110-638, species assumed, looked up): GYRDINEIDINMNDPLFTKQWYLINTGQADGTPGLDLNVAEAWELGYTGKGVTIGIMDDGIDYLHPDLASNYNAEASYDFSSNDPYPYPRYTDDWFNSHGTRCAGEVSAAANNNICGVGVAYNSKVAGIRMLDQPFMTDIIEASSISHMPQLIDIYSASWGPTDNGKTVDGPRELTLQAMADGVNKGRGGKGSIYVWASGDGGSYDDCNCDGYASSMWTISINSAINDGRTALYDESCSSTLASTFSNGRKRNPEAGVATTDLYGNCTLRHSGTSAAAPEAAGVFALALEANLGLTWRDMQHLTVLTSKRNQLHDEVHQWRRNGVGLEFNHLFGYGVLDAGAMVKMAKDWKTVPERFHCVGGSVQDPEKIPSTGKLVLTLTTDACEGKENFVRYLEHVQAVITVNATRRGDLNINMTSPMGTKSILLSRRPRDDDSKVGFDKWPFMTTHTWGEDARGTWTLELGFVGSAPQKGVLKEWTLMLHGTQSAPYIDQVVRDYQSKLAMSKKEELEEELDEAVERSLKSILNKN

T2: proprotein convertase PACE4
T2 construct: Partially purified preparation
T2 sequence (P29122 150-969, species assumed, looked up): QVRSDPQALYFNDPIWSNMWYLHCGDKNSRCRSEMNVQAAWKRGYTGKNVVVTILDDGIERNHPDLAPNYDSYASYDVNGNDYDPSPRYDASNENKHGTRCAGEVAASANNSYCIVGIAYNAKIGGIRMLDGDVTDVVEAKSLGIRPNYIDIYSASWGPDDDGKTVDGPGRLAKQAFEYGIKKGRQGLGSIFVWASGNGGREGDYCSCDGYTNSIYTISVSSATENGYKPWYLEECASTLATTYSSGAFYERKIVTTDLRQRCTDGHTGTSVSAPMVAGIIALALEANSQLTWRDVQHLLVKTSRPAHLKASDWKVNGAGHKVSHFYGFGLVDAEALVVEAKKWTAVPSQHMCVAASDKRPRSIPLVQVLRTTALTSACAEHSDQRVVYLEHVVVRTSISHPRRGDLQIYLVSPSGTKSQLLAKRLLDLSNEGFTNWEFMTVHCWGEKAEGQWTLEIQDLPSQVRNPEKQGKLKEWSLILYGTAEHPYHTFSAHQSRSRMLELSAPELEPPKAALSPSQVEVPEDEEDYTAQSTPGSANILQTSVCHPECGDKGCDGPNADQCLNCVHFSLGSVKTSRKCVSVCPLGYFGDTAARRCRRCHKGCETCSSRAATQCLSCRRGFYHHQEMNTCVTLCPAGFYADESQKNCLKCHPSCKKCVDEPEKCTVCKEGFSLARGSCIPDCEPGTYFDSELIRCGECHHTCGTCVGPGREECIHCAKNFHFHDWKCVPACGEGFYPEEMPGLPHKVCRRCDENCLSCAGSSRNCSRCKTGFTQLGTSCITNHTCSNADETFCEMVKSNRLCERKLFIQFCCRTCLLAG

B1: Ac-LLRVKR-NH2 (peptide)
peptide: Ac-LLRVKR-NH2
notes: L-hexapeptide; also called acetylated and amidated LLRVKR
B2: Penta-L-arginine (peptide)
peptide: RRRRR
notes: no terminal modifications; also called pentamer; pentameric polyarginine
B3: LLRVKR (peptide)
peptide: H-LLRVKR-OH
notes: L-hexapeptide without terminal groups; also called unmodified LLRVKR
B4: Tetra-L-arginine (peptide)
peptide: H-RRRR-OH
notes: no terminal modifications; also called tetramer
B5: Nona-L-arginine (peptide)
peptide: RRRRRRRRR
notes: no terminal modifications; also called nonamer
B6: Octa-L-arginine (peptide)
peptide: RRRRRRRR
notes: no terminal modifications; also called octamer
B7: Hepta-L-arginine (peptide)
peptide: RRRRRRR
notes: no terminal modifications; also called heptamer
B8: Hexa-L-arginine (peptide)
peptide: H-RRRRRR-OH
notes: no terminal modifications; also called hexamer

Target: T1, proprotein convertase PC2
Assay: enzyme inhibition, pERTKR-MCA hydrolysis, ratio of Ki

Binder | fold smaller Ki than the unmodified peptide LLRVKR [fold]
B1 | ~4

Target: T2, proprotein convertase PACE4
Assay: as above

Binder | ratio of Ki to that of the hexamer (SEQ ID NO 14) [fold]
B2 | ~2

Target: T3, recombinant truncated mouse furin (mouse, UniProt P23188 108-714, N-glycosylated at two of three potential sites)
T3 construct: extracellular domain; Purified by ion exchange and gel permeation; also called recombinant furin; recombinant mouse furin
Assay: as above

T3 sequence (P23188 108-714): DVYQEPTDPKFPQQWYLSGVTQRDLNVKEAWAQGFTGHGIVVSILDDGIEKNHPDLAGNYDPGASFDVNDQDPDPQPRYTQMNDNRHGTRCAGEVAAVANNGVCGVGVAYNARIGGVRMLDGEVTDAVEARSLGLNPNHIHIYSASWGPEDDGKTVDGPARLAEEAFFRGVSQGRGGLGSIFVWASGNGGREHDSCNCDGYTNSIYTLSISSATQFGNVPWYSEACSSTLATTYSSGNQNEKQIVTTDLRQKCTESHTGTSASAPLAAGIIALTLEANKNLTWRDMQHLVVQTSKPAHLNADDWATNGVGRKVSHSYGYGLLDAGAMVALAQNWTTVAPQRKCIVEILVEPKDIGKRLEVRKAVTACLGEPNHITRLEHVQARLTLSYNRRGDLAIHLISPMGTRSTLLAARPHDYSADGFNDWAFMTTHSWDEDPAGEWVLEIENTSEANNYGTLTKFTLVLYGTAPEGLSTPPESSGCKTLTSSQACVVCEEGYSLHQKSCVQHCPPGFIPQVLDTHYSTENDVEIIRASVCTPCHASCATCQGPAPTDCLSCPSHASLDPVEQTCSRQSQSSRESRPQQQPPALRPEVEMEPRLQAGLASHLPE

Binder | fold increase in inhibitory potency against the amidated and acetylated peptide Ac-LLRVKR-NH2 [fold] | fold increase in Ki against the pentamer (penta-L-arginine) [fold] | fold increase in Ki against the hexamer (hexa-L-arginine) [fold]
B3 | 8 | – | –
B4 | – | ~5 | –
B2 | – | – | ~10

Target: T4, proprotein convertase PC1
T4 construct: also called PC3
Assay: as above

T4 sequence (P63239 111-753): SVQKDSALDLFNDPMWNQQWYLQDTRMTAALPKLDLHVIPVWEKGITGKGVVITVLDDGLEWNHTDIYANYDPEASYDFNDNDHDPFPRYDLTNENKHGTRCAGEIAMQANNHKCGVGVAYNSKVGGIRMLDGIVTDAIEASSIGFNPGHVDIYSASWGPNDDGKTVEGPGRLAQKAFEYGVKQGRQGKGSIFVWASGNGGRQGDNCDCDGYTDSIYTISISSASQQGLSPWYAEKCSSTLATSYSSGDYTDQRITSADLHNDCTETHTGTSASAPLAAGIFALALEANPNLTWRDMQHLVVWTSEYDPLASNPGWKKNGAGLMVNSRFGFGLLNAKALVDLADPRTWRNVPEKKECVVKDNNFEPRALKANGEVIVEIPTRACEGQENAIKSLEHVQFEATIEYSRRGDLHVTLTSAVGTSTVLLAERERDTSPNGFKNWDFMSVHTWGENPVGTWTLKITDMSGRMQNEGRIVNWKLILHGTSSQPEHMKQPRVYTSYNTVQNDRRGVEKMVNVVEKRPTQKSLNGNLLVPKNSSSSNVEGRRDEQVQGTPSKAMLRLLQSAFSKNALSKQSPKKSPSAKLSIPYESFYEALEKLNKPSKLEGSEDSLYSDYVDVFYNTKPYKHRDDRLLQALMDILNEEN

Binder | fold increase in Ki against hexa-L-arginine [fold]
[dR][dR][dR][dR][dR][dR] (also called D6R; D-hexa-arginine) [Hexa-D-arginine] | 3

Target: T1, proprotein convertase PC2
Assay: enzyme inhibition, pERTKR-MCA hydrolysis (fluorescence), competitive Ki
From the text: (§1) The Effect of N-Terminal Acetyl and C-Terminal Amide Groups on Inhibition. We also examined the effect of the terminal acetyl and amide modifications on inhibitory potency.
(§2) Each value represents the mean ± S.D. determined from three independent experiments.

Binder | Ki [µM]
B3 | 3.7
Ac-LLRVKR-OH (L-hexapeptide, free C-terminus) [Ac-LLRVKR] | 1.3
B1 | 1
H-LLRVKR-NH2 (L-hexapeptide, free N-terminus) [LLRVKR-NH2] | 2.3

Target: T3, recombinant truncated mouse furin
Assay: as above
From the text: as §1, §2

Binder | Ki [µM]
B3 | 0.42
Ac-LLRVKR-OH (L-hexapeptide, free C-terminus) [Ac-LLRVKR] | 3.5
B1 | 3.4
H-LLRVKR-NH2 (L-hexapeptide, free N-terminus) [LLRVKR-NH2] | 0.8

Target: T1, proprotein convertase PC2
Assay: as above
Remark: another data set of the same source
From the text: as §2

Binder | Ki [µM]
Ac-RRKRRR-NH2 [Ac-RRKRRR-NH2] | 461
Ac-KHKRRR-NH2 (L-hexapeptide) [Ac-KHKRRR-NH2] | 280
Ac-RHKRRR-NH2 (L-hexapeptide) [Ac-RHKRRR-NH2] | 152
Ac-HHKRRR-NH2 (L-hexapeptide) [Ac-HHKRRR-NH2] | 235
Ac-KRKRRR-NH2 (L-hexapeptide) [Ac-KRKRRR-NH2] | 391
Ac-MHKRRR-NH2 (L-hexapeptide) [Ac-MHKRRR-NH2] | 216
Ac-HRKRRR-NH2 (L-hexapeptide) [Ac-HRKRRR-NH2] | 309

Target: T3, recombinant truncated mouse furin
Assay: as above
Remark: another data set of the same source
From the text: as §2

Binder | Ki [µM]
Ac-RRKRRR-NH2 [Ac-RRKRRR-NH2] | 1.3
Ac-KHKRRR-NH2 (L-hexapeptide) [Ac-KHKRRR-NH2] | 5.2
Ac-RHKRRR-NH2 (L-hexapeptide) [Ac-RHKRRR-NH2] | 3.4
Ac-MRKRRR-NH2 (L-hexapeptide) [Ac-MRKRRR-NH2] | 2.3
Ac-HHKRRR-NH2 (L-hexapeptide) [Ac-HHKRRR-NH2] | 13.2
Ac-KRKRRR-NH2 (L-hexapeptide) [Ac-KRKRRR-NH2] | 1.6
Ac-MHKRRR-NH2 (L-hexapeptide) [Ac-MHKRRR-NH2] | 10.3
Ac-HRKRRR-NH2 (L-hexapeptide) [Ac-HRKRRR-NH2] | 2.1

Target: T2, proprotein convertase PACE4
Assay: as above
From the text: (§3) Inhibition of Furin, PACE4, PC1 and PC2 by Different L-Polyarginine Peptides.
as §2

Binder | Ki [µM]
B4 | > 200
B2 | 0.98
B5 | 0.11
B6 | 0.15
B7 | 0.24
[dR][dR][dR][dR][dR][dR] (also called D6R; D-hexa-arginine) [Hexa-D-arginine] | 0.58
B8 | 0.52

Target: T3, recombinant truncated mouse furin
Assay: as above
Remark: another data set of the same source
From the text: as §3, §2

Binder | Ki [µM]
B4 | 6.4
B2 | 0.99
B5 | 0.042
B6 | 0.061
B7 | 0.068
[dR][dR][dR][dR][dR][dR] (also called D6R; D-hexa-arginine) [Hexa-D-arginine] | 0.106
B8 | 0.114

Target: T4, proprotein convertase PC1
Assay: as above
From the text: as §3, §2

Binder | Ki [µM]
B4 | > 200
B2 | 14
B5 | 12
B6 | 5.1
B7 | 5.2
[dR][dR][dR][dR][dR][dR] (also called D6R; D-hexa-arginine) [Hexa-D-arginine] | 13
B8 | 3.9
